Reference: the DeepSol protein solubility set

Assay: soluble on expression in E. coli; label from the status in PepcDB or PDB records

Sequence	soluble on expression in E. coli
MRRRRVLLLLLSTTTFLRVSTAQQDEPKASVVEVQTKLGTVRGTESDHGNKRVRSFLGVPFAEPPINEHRFKKPTPARPWNGTISANTLSPACFQGRDSYDPTFWGSEMWNANTPVSEDCLYVNIWAPADAYNLTVLVWLFGGGFWYGSPSLLLYDGKELATRGNVIVVNINYRVGPFGYLFLDHEDVPGNMGMLDQQLALYWIRDHIFSFGGNPARISLVGESAGAASIVAHLIAPASKGLFQNGILQSGSLDNKWSMDSPKRAKQKSTALADLVGCNQTKITDQTACLRNTPAQLLIDNIWNVGLNFLEFPFAIVSKDQNFFKHLDGFIALREGTYSTDVNLMFGINHDEGNFWNIYNLAKFFDKQSVKPGLDRDEFHECVDTAFAVQPELVRTAAKYVYSDPKCTDPKKKTDFYTEQVNQMVGDYFFTCDSIWFAHNYPKMAGNQSNVFVYYFDQPSSANPWPKWTGVMHGYEIEYVFGVPLHNTTAGYTKEEMDVSEKVIDFWTTFANTGVPSLRKRAVGTTQKIKWDRYDGTDHTTWMNIKTGSFRMIQEIKKVECDLWRNAKDMEYSAYKEELATTSSSTLTQYTIYLILLSAFQLVFNFF	not soluble
GMAHPPQIRIPATYLRGGTSKGVFFRLEDLPESCRVPGEARDRLFMRVIGSPDPYAAHIDGMGGATSSTSKCVILSKSSQPGHDVDYLYGQVSIDKPFVDWSGNCGNLSTGAGAFALHAGLVDPARIPEDGICEVRIWQANIGKTIIAHVPVSGGQVQETGDFELDGVTFPAAEIVLEFLDPSDDGEDGGAIFPTGNLVDDLEVPGVGTFKATMINAGIPTVFVNAEEIGYRGTELREEINGDPQQLARFERIRVAGALRMGLIKTPEEAATRQHTPKIAFVAPPRDYRTASGKLVAAGDIDLLVRALSMGKLHHAMMGTAAVAIGTAAAIPGTLVNLAAGGGERSAVRFGHPSGTLRVGAEASQANGEWTVTKAIMSRSARILMEGWVRVPGDAF	soluble
MGSDKIHHHHHHMNKYNQLGSVRYNQLGRIKYNSRGAREVKPLFNRLAQARPVILDQNRRRLAILENADNIILEQEINGIDQVTFTLPWKDEKRKYLVNENLVQLVNSIYIIRRVSVKRSGLSPAEIEVYAEALWYDLQFAEPVEHARWESATPEVIMKDILDGTGWRVGKVTITRERTLELEAGFTNRLKALYELPSLFGGELHFNTDTMTVDFTEPVGRKSGAAIAYSKNLEEVEAIYDTEELVTKLYLYGKNNMSIADANDGVPYLTDFSFTDKVRVRVTKDERFTNPYHLKERGEEALKVLARPRSSYVLRAADLSALSGMSHEEFFLGDEVLVYDKELGINVRTRIVSWKYNVIQPWNTELQLESKQPSLSDLLTGIQEGAEFLYSEDAVERDEMLNLHVFNYLMNSRGDDGFNYWTNDGWELDAENGYSGNASFRATAQPGVKKSLRQTIYPAHRDSYSLSLRVATENLRVGNGRVGVYVKFKYQDGTEEEPIWIPLSEDE	not soluble
MGDGKPHTAQQTIPYLQMYPDGICRVTEKKYSKSLVFEDINYQLAQADDKTAIFENWCDFLNYFDASVSVQLSFINQGARQEKAQAAIEIPAQDDAFNSIRKEYADMLKNQLEKGNNGLEKCKYITFSIEADNLAAAKARLSRIETDVLNNFKVLGVTARPMNGQERLNVLHGIFHPAGEPFRFSWDWLVPSGLTTKDFIAPSSFHFGDGRTFRMGKKLGAVSFLEILAPELNDRMLSDILDLENGIIVNLHIRSIDQSEAIKTIKRKITDLDKMKIEEQKKAVRSGYDMDIIPSDLATFGSEAKNLLQDLQSRNERMFLLTFLVANMADTKRKLENDIFATAGFAQKNNCALTRLDYLQEAGFMSSIPLGENLIPIQRGLTTSSTAIFIPFITQELFQRGAALYYGLNALSNNMILCDRKQLKNPNGLILGTPGSGKSFAAKREITNIFLITDDDIIICDPEAEYYPLVERLHGQVVHISPTSRHYVNPMDINLNYSEDDNPLALKSDFILSLCELVIGGKEGLQPVEKTVIDRAVRNVYRPFLADPDPAKMPILGDLYNELLKQPEPEAARIAAALELYVSGSLNVFNHRTNVELSNRLVCFDIKQLGKQLKKLGMLIVQDQVWNRVTLNRAEKKATRYYMDEFHLLLKEEQTAAYSVEIWKRFRKWGGIPTAITQNVKDLLSSREVENIFENSDFVLMLNQAQGDRAILAKQLNISPQQMKYVTHTEAGEGLIFYGNVVLPFIDRFPTNTELYRLLTTKPEEVSKPLEHHHHHH	soluble
MIGMVNVQCDTPLDYYATAPNLLSRDTSVRKRGDSESANASRHNSTKRTPSWRPLFTGQGKKKSSKPKYLQDGRKMTEDGHDEPNKLWEELFLRSFAHKIEQEISSPSPLEAHKNLNSELSKLNIQDKSFYRSTYSLVSPTRIENTDFEELERIENQEKTQDDSKPNRSNSSTERPSSQICSVFLPFIKTIKGNKKKNSITSVNNNTKNS	not soluble
MGSDKIHHHHHHMIQRRETFLNNVAEKLGRGRRTAGVKRPDYTVKPQFEVMKEHSSDQLVNVLSEQCTKIHTDVKQTKVDRLEQAIDNVLEEYSARNVITWNDPRFDQFGLTSFLQREQVEVWDHTEGERLVEKAEQADIGITFADYTLAESGTVVLLSGNGKGRSVSLLPTYYIAIIPKSTLVPRMSQVTRELHLKAASGERLPSCINFISGPSNSADIEMNLVVGVHGPIRACYIVVEDR	not soluble
MQGDAAEKARLRGERLAARDALTPAERQQKSLSMTAHGVSGIPFAPGTVISGFMPIRSEVDTRPLMEALRARDGRLVLPVVLDQETIVFRVFEADTPLVKTGFGTTGPGEDAEVLDPHILLVPLSVFDGEGQRIGYGAGHYDRAIARLHAKGRQPVLIGIAFDCQEVASVPAEPHDVALHAVLTESGLRWFSAQRLEHHHHHH	not soluble
MEFNKLQLSHCISFYISDVSEVFFESINQHPSRDFVNNILQKIKSTLSEEELEKLNTIEEVTKDEKILIMLNHVLKKIVSKTGSSSCDLFQIVKHDRFNEPVYIQSVNAFENNLINNEFAERRYDYLIEINKHSYLRKYVNAIRISFFLDLRAQILSGSFTLDVINKQLEHQNKEELFQAIYLRSLIKHFISNQLYPISLNSFIFGDKNRENKTVENDKLSVLKNNWNQIFFSKYFDFVAKNKEERVVDNNCD	not soluble
GDKVIVMGHKRPDLDAIGAAIGVSRFASMNNLEAFIVLNDSDIDPTLRRVMDEIDKKPELKERFVTSDEAWDMMTSKTTVVVVDTHKPEMVLDENVLNKANRKVVIDHHRRGESFISNPLLVYMEPYASSTAELVTELLEYQPTEQRLTRLESTVMYAGIIVDTRNFTLRTGSRTFDAASYLRAHGADTILTQHFLKDDV	not soluble
MNLLQRALVFTGGHISRYQAVIAVNSVGKNARFYSTTDDNMAAPEESVVAKDEMKRFMVECMTKVGATESHATQLALVLLEGDIRGHYSHGLNRLDMYVRDIEQNVCKGDGEPIILKEKAGTAWVDGNNLLGPVVGNFCMDLAIEKAKNAGIGWVVAKGSNHYGIAGWYALRAMKKGMLGMSMTNTSPISFPTRSAVPALGTNPISLAAPGTGDDSFVLDMASTTVAIGKVELAARKENPVPLSWGVGEGGKETTDPTKVLYGGGLLPLGGVEVSGGYKGYGLSSMIEIFCGILAGAHWGPHVRKWMSTKSEADLGQCFVAIDPEAFAPGFADRLQDFMQTMRALPTSSPSFKVEVAGDMERRHEALVEQLGGIPYHKNQITFVNDLAAKLGVKTVDLVQ	not soluble
TVQCKVTLLDGTEYSCDLEKHAKGQVLFDKVCEHLNLLEKDYFGLLFQESPEQKNWLDPAKEIKRQLRNLPWLFTFNVK	not soluble
MGSDKIHHHHHHMQNKNKTVVKSMALLNLFLHKPSLTLSELVSLTGMPKTSVHRMVSSLEEMGFLSRDASGAYSLGLVFLEFGQLVADRLDIRKIAKPVMEELCREVDEAVQLIMRDGNEAIYVEKIEGTQTVRLYTAIGRRSPLYAGACARSILSFLPREEIEAYIKQTELISIGSGTITDPEKLLQEIDASVQNGYTVSYSELENYTAAIGAPIFNHERQVAAGISIAGFEARFTEDRLPYLTEKVKDAALQISRK	not soluble
MGSDKIHHHHHHMFVPAPDATITNCRNCPLRRKPLFLPFSDSELSFMEQFKVGELVVAPGVTLLEEGQGSAHLFTVLSGLGIRSTMLENGRRQVINFLFPGDFIGLQAGLAGEMRHSVESTTTMVLCVFNRADLWDLFREEPERAYDLTWIAAVEEHFLGETIASLGQRDATERLAWALLRIHERLSAIGLAERGRVPMPWRQQDLADALGLSLVHTNKTIRRLRETGHALWEGGTLFVDRERLATLALADPDRPRRRPLI	not soluble
MGSAVIRVLSYNIRSMRDDTAALARVISACEPDLVLVQEAPRFFRWRKKLAPLASACGQVVLSGGATAAGPALLCSLRATVERTEDVLLPLTPGLHRRGFATAVVRFGRARLGVLSCHLSLQKNERYEQGGMLLDHLARLGTPHAIAGGDLNERPDGRTFKRLASELRDCWATAPWGAEYTSTPADPHQRIDAILATPGIEVLACGVPLGHPGVTEADLRAATDHLPVLAALRVPASLEHHHHHH	not soluble
MGHHHHHHSHMLKDFLKEQGFEVRENHEVDAVIIGQDKEIEFKKIKNATSAVFLKGAKIIPVNLSKIVKDSDGLYFPGSGSYAYMFKHATNYEGEIPNLGKPSKEFINLALEGLPREKVFLISDDIYTDLMGAKELGIGTIFMTTGKYKQEELKKANFKPDYVFHSLKELMREIKKWLS	not soluble
MNNTEPWKKYVPETVSLYHVDYRENLNEREDLQEQCIRNNNMERLYETVMECYAEQEAESLLKILGEIKEKMAEEKRQEEFEEHREEITDLILSRSDTDPAEELIKNSAAVNMYYSPGEKIEERIGKASKTMSCYKVRRALKLKKGQFDTLIEELVDNATYGGELRIYFNAGFNELVTNDNGKDFRTIRFHRDVIVAVANSFNGSGYHISLPLDITFPFVRDRLFVDSQVRYSYATEVCGMCRDWCDSTSWETEYKTVRNTSRNRQKEKTLSTN	not soluble
SSLYRLFQSSKRPFASFSAPLVRFTNSRCVSAVLSRKETAPSSIYGNRVSRVSGFGALDIRSLNFSTKSSQINDAGSIDQTLMQSMELKIKEQLNAESVTVTDMSGDGRHVCINVVSSAFEGQSAVNRQRMVYKAIWEELQNVVHAVDQMTTKTPSEV	soluble
MTPLGPASSLPQSFLLKCLEQVRKIQGDGAALQEKLCATYKLCHPEELVLLGHSLGIPWAPLSSCPSQALQLAGCLSQLHSGLFLYQGLLQALEGISPELGPTLDTLQLDVADFATTIWQQMEELGMAPALQPTQGAMPAFASAFQRRAGGVLVASHLQSFLEVSYRVLRHLAQP	soluble
SGKGGWLLNFLNHAKNQESVENLDKNGAVKAPSSGFKMPLHYPRYTKEDYEEMEEWRLDLLLSEYGLLAFHDNTLHEKRAFAIDTFIWPHHP	soluble
MSLELVIGTKRWSSWSLRPWLALKRAGVDFTELEVALRRGEATGDEIGCISPSRLAPALRDGDLVIWDSLAICEYLAERYPDAKLWPDDPVLRALGRSACAEMHSGFQALRGECPMALDEPPRKLDLSEATQKNVRRIVALWTGLLARSHGPFLLGDWSIADAFYTPVATRFRTYDVRLADYGDAGAAQGYSDRLLQTPEFLEWERAAQAGEGHHHHHH	soluble
